Legend:
[1] = tested on: His-tagged recombinant E1 enzyme; experiment: Influence of metal ions / reducing agent on dihydrodaidzein synthesis activity of E1 enzyme; type: biochemical, Lactococcus 20-92 strain; settings: for influence of metal ions on the conversion activity from daidzein to dihydrodaidzein: 100 μl of 100 mM metal ion solution in 1000 μl, 37° C., 2 hours, HPLC (FIG. 26); for activation of E1 enzyme (dihydrodaidzein synthesizing enzyme activity): general statement in the description
Experimental: Using the His-tagged recombinant E1 enzyme ([…]) expressed in Escherichia coli, purified by Ni-Sepharose, as an enzyme source, the influence of metal ions on the conversion activity from daidzein to dihydrodaidzein was examined. Various metals (MnCl2.2H2O, FeSO4.7H2O, CaCl2.2H2O, Zn(CH3C00)2.2H2O, CoSO4.7H2O, MgSO4.7H2O, NiSO4.6H2O) were dissolved in distilled water to obtain a concentration of 100 mM. Using the metal ion solution, an enzyme reaction mixture of the composition below was prepared, and was reacted at 37° C. for 2 hours to measure the activity. [table] After incubation, 3 mL of ethyl acetate was added to the obtained enzyme reaction mixture for extraction. After drying, the extract was dissolved by the mobile phase (eluent). The dissolved product was analyzed by HPLC to measure the contents of daidzein and dihydrodaidzein in the enzyme reaction mixture.

[2] = tested on: dihydrodaidzein; experiment: Tetrahydrodaidzein biosynthesis activity in centrifuged supernatant of disrupted cell material and NADH or NADPH dependency (Example B2); type: biochemical, Lactococcus 20-92 strain; settings: centrifuged supernatant of disrupted cells; 37° C., 2 hours; HPLC (FIG. 11)
Experimental: The frozen cells were thawed and centrifuged at 4° C. for 15 minutes (5,000×G). The pellet was used in the test below. First, the pellet (wet weight 2.7 g) was suspended in 10 ml of a 0.1 M phosphate-potassium solution containing 1 mM PMSF and 5 mM sodium hydrosulfite. After preheating at 37° C. for 5 minutes, lysozyme was added in an amount of 100 mg per gram of the pellet (wet weight) to cause a reaction at 37° C. for 1.5 hours. Then, an equivalent amount of 0.1 M dipotassium phosphate solution was added to the reaction mixture, and the mixture was vigorously agitated with a vortex mixer after adding zirconia-silica beads (3 ml). The cells were then disrupted with a sonicator (Branson Sonifier Cell Disruptor 200) (3 cycles of a 5-minute sonication and a 2-minute rest). The disrupted cell suspension was centrifuged at about 10,000×G for 15 minutes to obtain a supernatant, which was then used as an enzyme source. An enzyme reaction mixture of the composition below was prepared, and was incubated at 37° C. for 2 hours. After incubation, 5 mL of ethyl acetate was added to the enzyme reaction product for extraction. Then, the product was dried to prepare a sample for HPLC analysis. [table]

[3] = tested on: disrupted cell material of Lactococcus 20-92 strain; experiment: Enzyme reaction with disrupted cell material of Lactococcus 20-92 strain as enzyme source (Example B1); type: biochemical; settings: 10 μg/mL substrate, 2 mM NADPH, 2 mM NADH, 37° C., 2 hours
Experimental: The Lactococcus 20-92 strain cells preserved at −80° C. were quickly thawed. The cells were suspended by tapping, and centrifuged at 4° C. (8,000 rpm×5 min) using a centrifuge VC-960 (Taitec). After removing the supernatant, 0.1 M potassium phosphate buffer/1 mM PMSF (phenylmethanesulfonyl fluoride)/2 mM DTT (dithiothreitol)/5 mM sodium hydrosulfite (pH 7.0) were added to obtain a cell suspension. The cell suspension was placed in a 2 ml tube prepared to include zirconia-silica beads (about 0.8 mL, 0.1 mm, 1 lb; Wakenyaku Co., Ltd.), and the tube was charged with 0.1 M potassium phosphate solution/1 mM PMSF/2 mM DTT/5 mM sodium hydrosulfite (pH 7.0) to fill the tube almost completely. For disruption, the tube was closed and kept on ice, where a cycle of 6,500 rpm×20 sec centrifugation and ice-cooling was repeated four times using FastPrep®-FP100A (Thermo Electron Corporation). The resulting disrupted cell material was used as an enzyme source in an enzyme reaction.
A 1 mL enzyme reaction mixture of the composition below, containing 0.1 ml of the disrupted cell material obtained in (1) was prepared, and the mixture was incubated at 37° C. for 2 hours. After incubation, 3 mL of ethyl acetate was added to the resulting enzyme reaction product for extraction. The product was dried to prepare a sample for HPLC analysis. […]

[4] = tested on: Lactococcus 20-92 strain; experiment: Equol biosynthetic activity of bacterial cell from tetrahydrodaidzein (Example C1); type: cell-based; settings: 10 μg/mL in medium; 37° C., 18 hours, anaerobic; HPLC (FIG. 20)
Experimental: A Lactococcus 20-92 strain (FERM BP-10036) was inoculated in a tetrahydrodaidzein-containing amplification liquid medium (a modified GAM bouillon medium (NISSUI PHARMACEUTICAL CO., LTD.) to which cis- or trans-tetrahydrodaidzein (organically-synthesized by Otsuka Pharmaceutical Co., Ltd.: see Reference Example B1) was added in an amount of 10 μg/mL), and the culture was incubated at 37° C. for 18 hours under anaerobic conditions (using BBL Gas Pack systems). After incubation, 1 mL of the culture was immediately placed in a glass centrifuge tube with cap, and 3 mL of ethyl acetate was added thereto for extraction. The product was dried to prepare a sample for HPLC analysis. As the standard solution for HPLC analysis, a mixed solution of daidzein (2 μg/mL; Funakoshi Corporation), equol (2 μg/mL; Funakoshi Corporation), dihydrodaidzein (2 μg/mL; Trend Research Chemicals Inc.), cis-tetrahydrodaidzein and trans-tetrahydrodaidzein (2 μg/mL; both chemically-synthesized by Otsuka Pharmaceutical Co., Ltd.) was used.

[5] = tested on: dihydrodaidzein; experiment: Enzyme property of E2 enzyme (tetrahydrodaidzein synthesis using dihydrodaidzein as a substrate); type: biochemical
Experimental: Regarding polypeptides (Bb) and (Bc), the activity to synthesize tetrahydrodaidzein using dihydrodaidzein as a substrate can be confirmed as follows. First, a polypeptide of interest is added to a substrate solution of the composition below at a concentration of 0.001 mg/mL. The solution is then incubated at 37° C. for 2 hours to check for the presence or absence of tetrahydrodaidzein in the solution. The presence of tetrahydrodaidzein in the solution after incubation is used as an indicator of the polypeptide's activity to synthesize tetrahydrodaidzein using dihydrodaidzein as a substrate. Since E2 polypeptide has an enzyme activity to synthesize tetrahydrodaidzein using dihydrodaidzein as a substrate, E2 polypeptide is also referred to as E2 enzyme. […] The optimal temperature of E2 enzyme is in the vicinity of 37° C., and the optimal pH is 4.5.

[6] = tested on: tetrahydrodaidzein; experiment: Enzyme property of E3 enzyme (equol synthesis using tetrahydrodaidzein as a substrate); type: biochemical
Experimental: Regarding polypeptides (Cb) and (Cc), the activity to synthesize equol using tetrahydrodaidzein as a substrate can be confirmed as follows. First, a polypeptide of interest is added to a substrate solution of the composition below at a concentration of 0.001 mg/mL. The solution is then incubated at 37° C. for 2 hours to check for the presence or absence of equol in the solution. The presence of equol in the solution after incubation is used as an indicator of the polypeptide's activity to synthesize equol using tetrahydrodaidzein as a substrate. Since E3 polypeptide has an enzyme activity to synthesize equol using tetrahydrodaidzein as a substrate, E3 polypeptide is also referred to as E3 enzyme. The optimal temperature of E3 enzyme is in the vicinity of about 23 to 37° C., and the optimal pH is 4.5.

[7] = tested on: daidzein; experiment: Enzyme property of E1 enzyme (dihydrodaidzein synthesis using daidzein as a substrate); type: biochemical
Experimental: Regarding polypeptides (Ab) and (Ac), the activity to synthesize dihydrodaidzein using daidzein as a substrate can be confirmed as follows. First, a polypeptide of interest is added to a substrate solution of the composition below at a concentration of 0.001 mg/mL. The solution is then incubated at 37° C. for 2 hours to check for the presence or absence of dihydrodaidzein in the solution. The presence of dihydrodaidzein in the solution after incubation is used as an indicator of the polypeptide's activity to synthesize dihydrodaidzein using daidzein as a substrate.
Since E1 polypeptide has an enzyme activity to synthesize dihydrodaidzein using daidzein as a substrate, E1 polypeptide is also referred to as E1 enzyme. E1 enzyme is activated by the presence of a reducing agent such as Na2S2O4 and metal ions such as Fe^2+ and Mn^2+. […] The optimal temperature of E1 enzyme is in the vicinity of 30° C., and the optimal pH is 7.0.

[Fe+2] [Fe^2+]
influence of metal ions on the conversion activity from daidzein to dihydrodaidzein [1]: stimulated the activity
activation of E1 enzyme (dihydrodaidzein synthesizing enzyme activity) [1]: activated

O=S([O-])S(=O)[O-].[Na+].[Na+] [Na2S2O4]
activation of E1 enzyme (dihydrodaidzein synthesizing enzyme activity) [1]: activated

NC(=O)C1=CN([C@@H]2O[C@H](COP(=O)(O)OP(=O)(O)OC[C@H]3O[C@@H](n4cnc5c(N)ncnc54)[C@H](OP(=O)(O)O)[C@@H]3O)[C@@H](O)[C@H]2O)C=CC1 [NADPH]
coenzyme dependency of the conversion of dihydrodaidzein into tetrahydrodaidzein [2]: much more strongly

Oc1ccc(C2COc3cc(O)ccc3C2O)cc1 (stereo not drawn) [cis-tetrahydrodaidzein]
production of equol from tetrahydrodaidzein by enzyme reaction ([3]; HPLC (FIG. 10)): equol was produced
equol biosynthesis from tetrahydrodaidzein by bacterial culture [4]: activity to biosynthesize equol

[Mn+2] [Mn^2+]
influence of metal ions on the conversion activity from daidzein to dihydrodaidzein [1]: stimulated the activity
activation of E1 enzyme (dihydrodaidzein synthesizing enzyme activity) [1]: activated

O=C1c2ccc(O)cc2OCC1c1ccc(O)cc1 (stereo not shown) [dihydrodaidzein]
enzyme reaction product from dihydrodaidzein as a substrate ([3]; HPLC (FIG. 9)): production of trans-tetrahydrodaidzein

B1: E2 enzyme: polypeptide (SEQ ID NO: 7) having an activity to synthesize tetrahydrodaidzein using dihydrodaidzein as a substrate (protein, listed as Lactococcus garvieae)
chain: MAQEVKVPKMPGAPVFGKWISPEESVGQRLKGKKILLTGTTKGVGRVTQELLCAHGAFVCGSGRTPGVAASVADELKAKGYQAAGMDVDLSDYDAVKKWVEECAELMGGIDVVINNASHPGMAPFGEMTPEIWNYGIKNELDLVYNVCNCAWPYLQKADGASIIITSSTVALQGSNSPQACHAACKGACLSLARQLAAEGGPFGIRCNSVTPGLVWTEAMSNIPKEMASGLVAAQTTQQAVDPMDIAYAYLFLASDESRQITAANIPVDGGCAGAVTGGMQGEIEV
coenzyme requirement of E2 enzyme [5]: requires NADPH or NADH as a coenzyme
optimal pH of E2 enzyme [5]: 4.5
optimal temperature of E2 enzyme [5]: ~37 °C
reverse reaction of E2 enzyme [5]: synthesize dihydrodaidzein from tetrahydrodaidzein

B2: E3 enzyme: polypeptide (SEQ ID NO: 13) having an activity to synthesize equol using tetrahydrodaidzein as a substrate (protein, listed as Lactococcus garvieae)
chain: MAEFDVEYDLVVVGGGASGKSAALIAAREGKRVVVLEKMPETGGLSMYAEGTAAFESSIQNELGTPRLSKYHFPTKQEGIEKFMGYSHQRANYDVVRAFVENSAETIDIYRDLGVVYKACDIAAEDDPNEVWTFHLPEGLGAHCQEVLLDAIQKLDVDIFTSTPAKELIIEDGAVVGVVAESDGEPLRVGGKAVILATGGMGSSPERIFKYSWFAPAAYNMNTLTPLQNVGDGLDLALSAGADPTYITTCPILAAGGRDMTMDSQVGGAGVNPGVWINKTGRRFAAESVAENIGDIGTYYGKQPGGVVWSILSQADIDRLVAEGSEIAIGEFVVYHKPMERLPIELEAHLESGLVKKAGSFEELAALIDVPVDTFVATMADYNEACEKGYDDAFMKKPQYLRPMVEGPFYAIPLATGTMGSAGGIRINGNMQVVDADYNAIPGLYAVGLDATGLYGDSYNMEVPGAANGFAHTSGRIAARHAISTM
optimal pH of E3 enzyme [6]: 4.5
reverse reaction of E3 enzyme [6]: synthesize tetrahydrodaidzein from equol

B3: E1 enzyme: polypeptide (SEQ ID NO: 1) having an activity to synthesize dihydrodaidzein using daidzein as a substrate (protein, listed as Lactococcus garvieae)
chain: MKNKFYPKTFERGYIGNLEVENRAIRMPMGTELGNPDGSPSWASLKAYAEAADGGTGIVFMDNAGVTQFHHVGLSLASDNYIGPMSVLAKTIKQHGAIPGLQIVHPGRDAAFVRGDDLISSSRIQWEPWYENGGAVPRELTIEEIHDFVGYFGDCALRAQTAGFEIVDVHAACGVLLSNFLSPRNNTRNDMYGGSLHNRARFLLEVIRDIKKKCPNLPLAIRLSGIDFEPDGITIEETCEVAKMCEAAGADAINITWGSHAEVINAAGLLSKHGANHVEAAKMIKDAVSIPTMLCGGIYSPEIGEKLLEDGVCDFIGIGKPALADPMWAKKAAEGRPEDIRPCIGCGVGCHDRGMLSGGVVQCAVNAALYKFDEPVYPQAEVPKKVIIIGAGPAGCEAAITAKKCGHDVTIYEKRKIGGVLKEATVSDSKEDLGRLITYYETQLKKEGIEVIYEEATADTVVAGGFDVAIVACGATVRNLNIDGQDDPSVVYAMDFLDNDCKSDADRVVVVGGGIVGAETALILAEERGKDVTITTRSPEFFVSGVMGIAYMVRLGMAGVTIKPSTQLVAVKDGKPMFAGPRGLETLDVDQTIISSGFVPTFNQFRAQIEEKCEDVRVIGIGDCKASRMVMDAVHEGYIAGCNL
coenzyme requirement of E1 enzyme [7]: requires NADPH or NADH as a coenzyme
optimal pH of E1 enzyme [7]: 7.0
optimal temperature of E1 enzyme [7]: ~30 °C
reverse reaction of E1 enzyme [7]: synthesize daidzein from dihydrodaidzein
